According to US20250376519A1 (JIANGSU HENGRUI PHARMACEUTICALS, published 2025):
Numbering of substitutions follows the chain as printed.

T1: human DLL3 on cells (human, UniProt Q9NYJ7 27-618)
T1 construct: Endogenous on H1184 and SHP77; Cell line is named under assay; also called H1184; DLL3/H82
T1 sequence: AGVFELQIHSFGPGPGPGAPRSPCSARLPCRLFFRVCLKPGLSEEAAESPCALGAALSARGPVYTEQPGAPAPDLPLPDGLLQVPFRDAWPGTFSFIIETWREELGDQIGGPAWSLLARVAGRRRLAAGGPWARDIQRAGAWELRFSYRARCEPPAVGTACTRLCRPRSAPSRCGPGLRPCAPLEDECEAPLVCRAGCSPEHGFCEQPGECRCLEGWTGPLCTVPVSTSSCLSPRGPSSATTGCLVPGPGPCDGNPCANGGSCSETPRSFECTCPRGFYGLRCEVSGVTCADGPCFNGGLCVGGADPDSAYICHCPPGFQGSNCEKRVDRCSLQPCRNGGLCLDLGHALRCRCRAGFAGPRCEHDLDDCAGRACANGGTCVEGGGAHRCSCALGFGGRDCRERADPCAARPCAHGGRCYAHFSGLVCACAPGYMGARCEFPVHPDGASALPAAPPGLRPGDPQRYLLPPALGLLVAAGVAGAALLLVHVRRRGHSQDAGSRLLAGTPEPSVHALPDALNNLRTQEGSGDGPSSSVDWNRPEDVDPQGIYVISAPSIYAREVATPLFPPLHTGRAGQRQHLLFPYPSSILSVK

T2: human DLL3 (ACRO, DLL3-H52H4) (human, UniProt Q9NYJ7 27-492)
T2 construct: Bought
T2 sequence: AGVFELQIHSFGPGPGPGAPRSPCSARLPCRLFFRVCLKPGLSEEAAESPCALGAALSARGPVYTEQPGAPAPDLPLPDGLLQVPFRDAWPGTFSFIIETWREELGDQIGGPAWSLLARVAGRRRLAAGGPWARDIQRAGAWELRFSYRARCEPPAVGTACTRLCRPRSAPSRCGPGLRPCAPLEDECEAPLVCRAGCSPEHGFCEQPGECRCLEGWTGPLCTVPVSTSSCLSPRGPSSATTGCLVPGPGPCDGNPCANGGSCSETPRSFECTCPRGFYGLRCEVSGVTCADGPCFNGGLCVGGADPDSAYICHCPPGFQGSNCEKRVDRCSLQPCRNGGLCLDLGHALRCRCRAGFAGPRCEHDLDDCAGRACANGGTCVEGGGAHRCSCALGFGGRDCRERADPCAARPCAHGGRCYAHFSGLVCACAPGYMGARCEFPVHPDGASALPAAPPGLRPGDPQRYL

B1: hu6L2H12 (antibody, human IgG1, kappa, V domains shown)
VH: EVQLVQSGSELKKPGASVKVSCKASGYTFTDYYMNWVRQAPGQGLEWMGIINPYSGVTIYNHKFKGRFALSVDKSSNTAYLQISSLKAEDTAVYYCARQDSLLDYAMDYWGQGTTVTVSS
VL: DIQMTQSPSSLSASVGDRVTITCHASQGISGNMGWLQQKPGKAPKGLIYHGANLEDGVPSRFSGSGSGADYTLTISSLQPEDFATYYCVQYAQFPYTFGGGTKVEIKR
B2: hu6L4H4 (antibody, human IgG1, kappa, V domains shown)
VH: EVQLVQSGAEVKKPGASVKVSCKASGYTFTDYYMNWVRQAPGKRLEWMGIINPYSGVTIYNHKFKGRVTLTVDKSANTAYMELSSLRSEDTAVYYCARQDSLLDYAMDYWGQGTTVTVSS
VL: B1 VL with T85D
B3: hu6L2H6 (antibody, human IgG1, kappa, V domains shown)
VH: B1 VH with A69V
VL: B1 VL
B4: hu6L2H5 (antibody, human IgG1, kappa, V domains shown)
VH: B1 VH with A69V, S76V, N77S
VL: B1 VL
B5: hu6L2H11 (antibody, human IgG1, kappa, V domains shown)
VH: B1 VH with R38K, A69V
VL: B1 VL
B6: hu6L2H13 (antibody, human IgG1, kappa, V domains shown)
VH: B1 VH with R38K
VL: B1 VL
B7: hu6L4H11 (antibody, human IgG1, kappa, V domains shown)
VH: B1 VH with R38K, A69V
VL: B1 VL with T85D
B8: hu6L4H12 (antibody, human IgG1, kappa, V domains shown)
VH: B1 VH
VL: B1 VL with T85D
B9: hu6L4H13 (antibody, human IgG1, kappa, V domains shown)
VH: B1 VH with R38K
VL: B1 VL with T85D
notes: also called hu6L4VH13
B10: hu6L2H7 (antibody, human IgG1, kappa, V domains shown)
VH: EVQLVESGGGLVQPGGSLKLSCAASGYTFTDYYMNWVRQASGKGLEWVGIINPYSGVTIYNHKFKGRFTLSVDKSKNTAYLQMNSLKTEDTAVYYCARQDSLLDYAMDYWGQGTTVTVSS
VL: B1 VL
B11: hu98L2H2 (antibody, human IgG1, kappa, V domains shown)
VH: EVQLVESGGGLVQPGGSLRLSCAASGFTFSDYGIHWVRQAPGKGLEWVAYISSGGYTIYYADTVKGRFTISRDNAKNSLYLQMNSLRAEDTAVYYCARGDYEDIFYTMDYWGQGTTVTVSS
VL: DIQMTQSPSSLSASVGDRVTITCRASRDITKFLNWYQQKPGKAVKLLIYYTSRLHSGVPSRFSGSGSGTDYTLTISSLQPEDFATYYCQQGNTLPWTFGGGTKVEIKR
B12: hu98L1H1 (antibody, human IgG1, kappa, V domains shown)
VH: B11 VH with E102D
VL: B11 VL with V44P, Y71F
B13: hu98L2H1 (antibody, human IgG1, kappa, V domains shown)
VH: B11 VH with E102D
VL: B11 VL
B14: hu98L3H1 (antibody, human IgG1, kappa, V domains shown)
VH: B11 VH with E102D
VL: B11 VL with K42G
B15: hu98L3H4 (antibody, human IgG1, kappa, V domains shown)
VH: B11 VH with I58S
VL: B11 VL with K42G
B16: hu98L3H5 (antibody, human IgG1, kappa, V domains shown)
VH: B11 VH with I34M, I58S
VL: B11 VL with K42G
B17: hu98L3H2 (antibody, human IgG1, kappa, V domains shown)
VH: B11 VH
VL: B11 VL with K42G
B18: hu110L1H2 (antibody, human IgG1, kappa, V domains shown)
VH: EVQLVQSGAEVKKPGASVKVSCKTSGYTFTDYYMNWVRQAPGQSLEWMGIINPYNGGTSYTQKFKGRVTITVDKSASTAYMELSSLRSEDTAVYYCARHFYDSSYLTYSTMDYWGQGTTVTVSS
VL: DIVMTQSPDSLAVSLGERATINCKASENVGIFVSWYQQKPGQSPKLLIYGASNRYTGVPDRFSGSGSATDFTLTISSLQAEDVAVYYCGQSHSYPLTFGQGTKLEIKR
B19: hu110L1H1 (antibody, human IgG1, kappa, V domains shown)
VH: B18 VH with T24A, S44R
VL: B18 VL
B20: hu110L1H3 (antibody, human IgG1, kappa, V domains shown)
VH: B18 VH with N55Q
VL: B18 VL
B21: hu110L1H4 (antibody, human IgG1, kappa, V domains shown)
VH: B18 VH with N55S
VL: B18 VL
B22: hu110L1H5 (antibody, human IgG1, kappa, V domains shown)
VH: B18 VH with N55T
VL: B18 VL

target: T1, human DLL3 on cells; experiment: flow cytometry, H1184 cells
Method: (§1) The plates were centrifuged at 300 g for 5 min, and the supernatant was removed. Different concentrations of test antibodies were added at 100 μL/well. The plates were incubated in the dark in a refrigerator at 4° C. for 1 h. After 3 centrifugal washes at 300 g, working concentrations of APC anti-human IgG Fc (BioLegend, 410712) or PE F(ab′)2-goat anti-human IgG (invitrogen, H10104) were added. The plates were incubated in the dark in a refrigerator at 4° C. for 40 min. After 3 centrifugal washes at 300 g, the geometric mean fluorescence intensity was measured on an Invitrogen flow cytometer, and the EC50 values for the binding of the antibodies to DLL3-expressing cells were calculated.

Binder	EC50 [nM]	Emax
B1	0.1	2140
B2	0.06	2310
B3	0.05	2420
B4	0.06	2490
B5	0.04	1960
B6	0.1	2100
B7	0.07	2190
B8	0.05	2130
B9	0.09	2120
B10	0.07	2200
B11	–	2310
B12	–	2820
B13	–	2470
B14	–	2440
B15	–	1600
B16	–	1540
B17	–	2350

target: T1, human DLL3 on cells; experiment: flow cytometry, DLL3/H82 cells
Method: as §1

Binder	EC50 [nM]	Emax
B18	1.31	4700
B19	1.15	4470
B20	1.15	4560
B21	1.51	4580
B22	1.61	4610

target: T2, human DLL3 (ACRO, DLL3-H52H4); experiment: SPR Biacore 8K, Ab captured on Protein A
Procedure, shortened: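 Antibodies captured on a Protein A chip for 18 s; DLL3 or CD3D&3E antigen flowed 180 s, then 600 s dissociation, with real-time detection. Regeneration used 10 mM glycine-HCl pH 1.5 between cycles. Kinetics were obtained by 1:1 model fitting.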

Binder	Kd [nM]	koff [s⁻¹]	kon [M⁻¹ s⁻¹]
B1	0.461	0.000913	1.98e+06
B2	1.45	0.00108	743000
B3	0.877	0.000756	863000
B4	0.969	0.000784	810000
B5	0.363	0.000749	2.06e+06
B6	0.382	0.000803	2.1e+06
B7	0.314	0.000672	2.14e+06
B8	0.391	0.000805	2.06e+06
B9	0.322	0.000695	2.16e+06
B10	3.06	0.00205	670000
B11	0.55	0.000668	1.22e+06
B12	1.1	0.00171	1.55e+06
B13	0.269	0.000389	1.45e+06
B14	0.232	0.000372	1.6e+06
B15	1.11	0.00151	1.36e+06
B16	1.22	0.00173	1.42e+06
B17	0.464	0.000732	1.58e+06
B18	0.0819	4.26e-05	520000
B19	0.068	4.17e-05	614000
B20	0.0843	4.75e-05	564000
B21	0.0911	4.8e-05	527000
B22	0.141	6.41e-05	454000
